Laboratory results: US20130203609A1 (BOARD OF TRUSTEES OF NORTHERN ILLINOIS UNIVERSITY, published 2013)
Residue numbers refer to the chain shown, from its start. Each block holds one binder with its values, some of them ahead of it.

Columns and labels:
[1] = target: T1, bovine pancreatic RNase A (bovine, UniProt P61823 27-150); assay: competitive phage ELISA with 1 mM metals: VHH phage, serially diluted soluble RNase A (the varied competitor), RNase A-coated wells [panel A]
T1 construct: mature; Bought purified protein; The residue numbers K61 and T70, and the missing residues 16-22, fit the mature numbering; It was coated on plates in the ELISAs and biotinylated for the phage selections
T1 sequence (looked up): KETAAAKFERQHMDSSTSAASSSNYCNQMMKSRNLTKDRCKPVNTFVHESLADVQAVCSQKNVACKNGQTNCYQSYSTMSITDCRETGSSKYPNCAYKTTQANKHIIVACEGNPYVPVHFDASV
Protocol: (§1) Competitive Phage ELISA: Competitive phage ELISA's were performed as described by DeLano and Cunningham (DeLano and Cunningham 2004). Briefly, the concentration of phage needed to produce a 60% saturation signal was determined by running a phage ELISA of serially diluted phage stocks. This fixed amount of phage was then added to serially diluted RNase A and incubated for one hour at room temperature. The well contents of that plate were then transferred to a washed and blocked RNase A coated Maxisorp microtiter plate and incubated 15 minutes at room temperature. The plates were then treated as described above to determine the […] absorbance. The IC50 values were then determined using Origin Labs using the following relationship: […]

[2] = target: T1, bovine pancreatic RNase A; assay: competitive phage ELISA without metals: VHH phage, serially diluted soluble RNase A (the varied competitor), RNase A-coated wells [panel A]
Protocol: as §1

[3] = target: T1, bovine pancreatic RNase A; assay: ITC, 25 C; RNase A binding with 1 mM nickel (competitive)
Protocol: (§2) The binding parameters (K, ΔH°, ΔS°, and n) were determined using the single site binding model using the ITC add-in in Origin version 7 (MicroCal LLC). All titrations indicated a 1:1 interaction with observed stoichiometries equal to 1.0 (within 5%).
(§3) ITC experiments were performed using a MicroCal VP-ITC (MicroCal, LLC, Northampton, Mass.). All experiments were performed at 25° C. Proteins were dialyzed against the desired experimental buffer, which included PBS (20 mM NaPhosphate, 150 mM NaCl pH 7.4), TBS (20 mM Tris-HCl, 150 mM NaCl pH 7.4) and TBS-E (20 mM Tris, 150 mM NaCl, 1 mM EDTA, pH 7.4). For direct titration of NiCl₂ into the VHHmetal variant, concentrations were 2 mM and 200 μM for NiCl₂ and VHH, respectively. Based on the observed binding constant, this corresponds to a “cvalue” of 6.7, which is within the commonly acceptable range for the accurate determination of binding thermodynamics (Tellinghuisen, 2008; Wiseman et al. 1989). For competitive titrations, nickel was included in TBS without EDTA at concentrations ranging from 0-10 mM. Competitive VHH/RNase A titration experiments with a “c” value greater than 10 included protein concentrations ranging from 30 μM to 205 μM. Conditions included a 10-fold higher concentration of titrant (VHH). […] These experiments included using a 100-fold higher concentration of titrant (RNase A) relative to VHH. RNase A concentrations were between 150 μM and 800 μM. Extinction coefficients were determined using values determined by the methods described by Pace, et. al. (1995). […] For nickel/VHH titrations, the titrant nickel was dissolved in the appropriate dialysis buffer at a 10× concentration of the VHH. Experiments typically included 27, 10 μL injections with a 240 second delay between each injection. Dilution titrations indicated the absence of significant heats of dilution, consequently, no background dilution heat subtractions were necessary. The binding parameters (K, ΔH°, ΔS°, and n) were determined using the single site binding model using the ITC add-in in Origin version 7 (MicroCal LLC).

[4] = target: T1, bovine pancreatic RNase A; assay: ITC, 25 C; no nickel
Protocol: as §2, §3

[5] = target: T1, bovine pancreatic RNase A; assay: ITC, 25 C, no metal; reference is the wild-type anti-RNase A VHH
Protocol: as §2
(§4) ITC experiments were performed using a MicroCal VP-ITC (MicroCal, LLC, Northampton, Mass.). All experiments were performed at 25° C. Proteins were dialyzed against the desired experimental buffer, which included PBS (20 mM NaPhosphate, 150 mM NaCl pH 7.4), TBS (20 mM Tris-HCl, 150 mM NaCl pH 7.4) and TBS-E (20 mM Tris, 150 mM NaCl, 1 mM EDTA, pH 7.4). For direct titration of NiCl₂ into the VHHmetal variant, concentrations were 2 mM and 200 μM for NiCl₂ and VHH, respectively. Based on the observed binding constant, this corresponds to a “cvalue” of 6.7, which is within the commonly acceptable range for the accurate determination of binding thermodynamics (Tellinghuisen, 2008; Wiseman et al. 1989). For competitive titrations, nickel was included in TBS without EDTA at concentrations ranging from 0-10 mM. […] Extinction coefficients were determined using values determined by the methods described by Pace, et. al. (1995). […] The binding parameters (K, ΔH°, ΔS°, and n) were determined using the single site binding model using the ITC add-in in Origin version 7 (MicroCal LLC).

[6] = target: T1, bovine pancreatic RNase A; assay: ITC, 25 C; RNase A binding with 10 µM nickel (competitive)
Protocol: as §2, §3

[7] = target: T1, bovine pancreatic RNase A; assay: competitive phage ELISA, soluble RNase A against coated RNase A, with and without 1 mM Zn2+/Co2+/Ni2+
[8] = target: T1, bovine pancreatic RNase A; assay: ITC, 25 C; RNase A binding with 1 µM nickel (competitive)
Protocol: as §2, §3

[9] = target: T1, bovine pancreatic RNase A; assay: ITC, 25 C; RNase A binding with 10 mM nickel (competitive)
Protocol: as §2, §3

[10] = target: T1, bovine pancreatic RNase A; assay: ITC, 25 C, pH 7.4; no nickel; ITC at 25° C., no nickel
Protocol: as §2, §4

[11] = target: T1, bovine pancreatic RNase A; assay: ITC, 25 C, no metal
Protocol: ITC experiments were performed using a MicroCal VP-ITC (MicroCal, LLC, Northampton, Mass.). All experiments were performed at 25° C. Proteins were dialyzed against the desired experimental buffer, which included PBS (20 mM NaPhosphate, 150 mM NaCl pH 7.4), TBS (20 mM Tris-HCl, 150 mM NaCl pH 7.4) and TBS-E (20 mM Tris, 150 mM NaCl, 1 mM EDTA, pH 7.4). For direct titration of NiCl₂ into the VHH-metal variant, concentrations were 2 mM and 200 μM for NiCl2 and VHH, respectively. Based on the observed binding constant, this corresponds to a “c-value” of 6.7, which is within the commonly acceptable range for the accurate determination of binding thermodynamics. For competitive titrations, nickel was included in TBS without EDTA at concentrations ranging from 0-10 mM. Competitive VHH/RNase A titration experiments with a “c” value greater than 10 included protein concentrations ranging from 30 μM to 205 μM. Conditions included a 10-fold higher concentration of titrant (VHH). […] These experiments included using a 100-fold higher concentration of titrant (RNase A) relative to VHH. RNase A concentrations were between 150 μM and 800 μM. […] The binding parameters (K, ΔH°, ΔS°, and n) were determined using the single site binding model using the ITC add-in in Origin version 7 (MicroCal LLC). […]

[12] = target: T1, bovine pancreatic RNase A; assay: ITC, 25 C; RNase A binding with 100 µM nickel (competitive)
Protocol: as §2, §3

[13] = target: T1, bovine pancreatic RNase A; assay: ITC, 25 C, pH 7.4; no nickel
Protocol: as §2, §3

IC50 (read off the curve) [1]: ~1 nM
IC50 (read off the curve) [2]: ~0.7 nM
-TΔS° [3]: 0.9 kcal/mol
Kd [3]: 16 nM
N [3]: 0.994
ΔG° [3]: -10.6 kcal/mol
ΔH° [3]: -10.7 kcal/mol
-TΔS° [4]: 1.9 kcal/mol
Kd [4]: 19 nM
N [4]: 1.01
ΔG° [4]: -10.5 kcal/mol
ΔH° [4]: -12.4 kcal/mol
B1: wild-type anti-RNase A VHH (cAb-RN05) (VHH)
VHH: QVQLVESGGGLVQAGGSLRLSCAASGYAYTYIYMGWFRQAPGKEREGVAAMDSGGGGTLYADSVKGRFTISRDKGKNTVYLQMDSLKPEDTATYYCAAGGYELRDRTYGQWGQGTQVTVSS
notes: Camelid single-domain antibody; also called VHH-wt; wt-VHH

fold decrease in binding affinity against the wild-type VHH [5]: ~8 fold
ΔΔG° against the wild-type VHH [5]: 1.2 kcal/mol
IC50 (read off the curve) [2]: ~0.6 nM
-TΔS° [6]: 3.6 kcal/mol
Kd [6]: 219 nM
N [6]: 0.98
ΔG° [6]: -9.1 kcal/mol
ΔH° [6]: -12.7 kcal/mol
fold change in IC50 with and without 1 mM metals [7]: 1000 fold
-TΔS° [3]: 0.09 kcal/mol
Kd [3]: 5640 nM
N [3]: 1
ΔG° [3]: -7.13 kcal/mol
ΔH° [3]: -7.2 kcal/mol
-TΔS° [8]: 8 kcal/mol
Kd [8]: 160 nM
N [8]: 0.959
ΔG° [8]: -9.27 kcal/mol
ΔH° [8]: -17.2 kcal/mol
-TΔS° [9]: 1.3 kcal/mol
Kd [9]: 34000 nM
N [9]: 1
ΔG° [9]: -6.07 kcal/mol
ΔH° [9]: -7.3 kcal/mol
Kd [10]: 157 nM
Kd [11]: 155 nM
-TΔS° [12]: -1 kcal/mol
Kd [12]: 900 nM
N [12]: 0.98
ΔG° [12]: -8.27 kcal/mol
ΔH° [12]: -7 kcal/mol
-TΔS° [13]: 9 kcal/mol
N [13]: 0.96
ΔG° [13]: -9.3 kcal/mol
ΔH° [13]: -17.8 kcal/mol
B2: VHH-metal (metal sensitive anti-RNase A VHH) (VHH)
VHH: B1 VHH with A28P, Y29H, T30P, I32L, Y33H, E102Q, Q110H
notes: also called Metal-VHH
